# According to patent publication US20260286413A1, “HYALURONAN SYNTHESIS, SECRETION AND LENGTH CONTROL” (UNIVERSITY OF VIRGINIA, priority 2023, published 2026):
# Changes are numbered by the printed parent chain. Names and notes keep the numbering of the source.
# B1: W491A: X1HAS1 mutant, Trp491 of WGTSGRK/R motif replaced with Ala (protein, UniProt P13563 1-588, looked up, variant W491A)
# Hyaluronan synthase 1: MKEKAAETMEIPEGIPKDLEPKHPTLWRIIYYSFGVVLLATITAAYVAEFQVLKHEAILFSLGLYGLAMLLHLMMQSLFAFLEIRRVNKSELPCSFKKTVALTIAGYQENPEYLIKCLESCKYVKYPKDKLKIILVIDGNTEDDAYMMEMFKDVFHGEDVGTYVWKGNYHTVKKPEETNKGSCPEVSKPLNEDEGINMVEELVRNKRCVCIMQQWGGKREVMYTAFQAIGTSVDYVQVCDSDTKLDELATVEMVKVLESNDMYGAVGGDVRILNPYDSFISFMSSLRYWMAFNVERACQSYFDCVSCISGPLGMYRNNILQVFLEAWYRQKFLGTYCTLGDDRHLTNRVLSMGYRTKYTHKSRAFSETPSLYLRWLNQQTRWTKSYFREWLYNAQWWHKHHIWMTYESVVSFIFPFFITATVIRLIYAGTIWNVVWLLLCIQIMSLFKSIYACWLRGNFIMLLMSLYSMLYMTGLLPSKYFALLTLNKTGAGTSGRKKIVGNYMPILPLSIWAAVLCGGVGYSIYMDCQNDWSTPEKQKEMYHLLYGCVGYVMYWVIMAVMYWVWVKRCCRKRSQTVTLVHDIPDMCV
# B2: R381K: X1HAS1 mutant, Arg381 replaced with Lys (protein, UniProt P13563 1-588, looked up, variant R381K)
# Hyaluronan synthase 1: B1 Hyaluronan synthase 1 with R381K, A491W
# B3: R381A: X1HAS1 mutant, Arg381 of QxxRW motif replaced with Ala (protein, UniProt P13563 1-588, looked up, variant R381A)
# Hyaluronan synthase 1: B1 Hyaluronan synthase 1 with R381A, A491W
# B4: R496A: X1HAS1 mutant, Arg496 replaced with Ala (protein, UniProt P13563 1-588, looked up, variant R496A)
# Hyaluronan synthase 1: B1 Hyaluronan synthase 1 with A491W, R496A
# B5: K218A: X1HAS1 mutant, Lys218 replaced with Ala (protein, UniProt P13563 1-588, looked up, variant K218A)
# Hyaluronan synthase 1: B1 Hyaluronan synthase 1 with K218A, A491W
# B6: K218R: X1HAS1 mutant, Lys218 replaced with Arg (protein, UniProt P13563 1-588, looked up, variant K218R)
# Hyaluronan synthase 1: B1 Hyaluronan synthase 1 with K218R, A491W
# B7: W491F: X1HAS1 mutant, Trp491 replaced with Phe (protein, UniProt P13563 1-588, looked up, variant W491F)
# Hyaluronan synthase 1: B1 Hyaluronan synthase 1 with A491F
# B8: R287A: X1HAS1 mutant, Arg287 replaced with Ala (protein, UniProt P13563 1-588, looked up, variant R287A)
# Hyaluronan synthase 1: B1 Hyaluronan synthase 1 with R287A, A491W
# B9: K448R: X1HAS1 mutant, Lys448 replaced with Arg (protein, UniProt P13563 1-588, looked up, variant K448R)
# Hyaluronan synthase 1: B1 Hyaluronan synthase 1 with K448R, A491W
# B10: R296A: X1HAS1 mutant, Arg296 replaced with Ala (protein, UniProt P13563 1-588, looked up, variant R296A)
# Hyaluronan synthase 1: B1 Hyaluronan synthase 1 with R296A, A491W
# B11: H72A: X1HAS1 mutant, His72 replaced with Ala (protein, UniProt P13563 1-588, looked up, variant H72A)
# Hyaluronan synthase 1: B1 Hyaluronan synthase 1 with H72A, A491W
# B12: T493A: X1HAS1 mutant, Thr493 replaced with Ala (protein, UniProt P13563 1-588, looked up, variant T493A)
# Hyaluronan synthase 1: B1 Hyaluronan synthase 1 with A491W, T493A
# B13: T493S: X1HAS1 mutant, Thr493 replaced with Ser (protein, UniProt P13563 1-588, looked up, variant T493S)
# Hyaluronan synthase 1: B1 Hyaluronan synthase 1 with A491W, T493S
# B14: K448A: X1HAS1 mutant, Lys448 replaced with Ala (protein, UniProt P13563 1-588, looked up, variant K448A)
# Hyaluronan synthase 1: B1 Hyaluronan synthase 1 with K448A, A491W
# B15: H72F: X1HAS1 mutant, His72 replaced with Phe (protein, UniProt P13563 1-588, looked up, variant H72F)
# Hyaluronan synthase 1: B1 Hyaluronan synthase 1 with H72F, A491W
# B16: R496K: X1HAS1 mutant, Arg496 replaced with Lys (protein, UniProt P13563 1-588, looked up, variant R496K)
# Hyaluronan synthase 1: B1 Hyaluronan synthase 1 with A491W, R496K
# B17: R287K: X1HAS1 mutant, Arg287 replaced with Lys (protein, UniProt P13563 1-588, looked up, variant R287K)
# Hyaluronan synthase 1: B1 Hyaluronan synthase 1 with R287K, A491W
# B18: R296K: X1HAS1 mutant, Arg296 replaced with Lys (protein, UniProt P13563 1-588, looked up, variant R296K)
# Hyaluronan synthase 1: B1 Hyaluronan synthase 1 with R296K, A491W
# B19: C307A: X1HAS1 mutant, Cys307 replaced with Ala (protein, UniProt P13563 1-588, looked up, variant C307A)
# Hyaluronan synthase 1: B1 Hyaluronan synthase 1 with C307A, A491W
# B20: C307S: X1HAS1 mutant, Cys307 replaced with Ser (protein, UniProt P13563 1-588, looked up, variant C307S)
# Hyaluronan synthase 1: B1 Hyaluronan synthase 1 with C307S, A491W
# B21: C337S: X1HAS1 mutant, Cys337 replaced with Ser (protein, UniProt P13563 1-588, looked up, variant C337S)
# Hyaluronan synthase 1: B1 Hyaluronan synthase 1 with C337S, A491W
# System: X1HAS1
# Assay: Substrate turnover rate quantification (UDP release, enzyme-coupled assay)
# Assay type: biochemical, Xenopus laevis
# Details: UDP release
# Procedure: UDP release during HA synthesis was quantified using an enzyme-coupled assay as previously described (10, 13). Depletion of NADH was monitored at 340 nm every 60 s for 3 hours at 37° C. in a SpectraMax instrument. The raw data was processed in MS Excel and a linear phase of each reaction was determined. The rate of NADH depletion was converted to pmoles of UDP released using a UDP standardized plot (FIG. S1C) for Michaelis-Menten constant determination using GraphPad Prism. For substrate turnover rate quantification of X1HAS1 mutants, pmoles of released UDP were converted to the number of corresponding substrate turnovers per molecule of X1HAS1, per minute. Data is presented relative to wild type activity. All experiments were performed in four to eight replicates and error bars represent standard deviation from the means.
# HAS transfers the UDP-activated glycosyl unit (the donor sugar) to the non-reducing end of the nascent HA polymer (the acceptor sugar). This reaction generates UDP and elongated HA as reaction products (FIG. 1A). Catalytic activity can be assessed by monitoring the release of UDP in an enzyme-coupled reaction, as previously described (10, 13), or quantifying HA, either radiometrically or by dye staining following electrophoresis.
row,Molecule,substrate turnover / catalytic activity compared to WT
1,B1,abolished
2,B2,cannot be replaced
3,B3,cannot be replaced
4,B4,abolishes catalytic activity
5,B5,abolishes
6,B6,abolishes
7,B7,reduced

# Same assay, conditions: UDP release, normalized to WT
row,Molecule,substrate turnover rate / catalytic rate relative to WT
1,B8,about 15%
2,B9,50-75%
3,B10,~30%
4,B11,50-75%
5,B12,20-25%
6,B13,20-25%
7,B14,50-75%
8,B15,about 10%

# System: X1HAS1
# Assay: Electrophoretic HA size determination (agarose gel, Stains-all) of in vitro synthesized HA
# Assay type: biochemical, Xenopus laevis
# Details: not given
# Procedure: To assess the size of HA synthesized by X1HAS1, similar reaction conditions were applied to the ones described above. […] […] Controls were carried out by digesting the synthesized polymers with hyaluronidase. Synthesis reactions were mixed with SDS-PAGE loading dye and applied to a 1% agarose gel (Ultra-pure agarose, Invitrogen) casted in an Owl B2 system (ThermoFisher). […] After the run, the gel was equilibrated in 50% ethanol for 1.5 h and subjected to staining in 0.05% Stains-all (Sigma) in 50% ethanol overnight under light-protection. Post-staining background was reduced by soaking the gel in 20% ethanol for 3-7 days in the dark. The migration of the synthesized HA species was compared to HA standards from Streptococcus equi (Sigma), as well as enzymatically generated ladders: HA LoLadder and HA HiLadder (Hyalose).
row,Molecule,"HA product versus WT, short reaction"
1,B1,abolishes HA biosynthesis
2,B16,slightly increased length
3,B9,reduced length
4,B7,lower molecular weight product
5,B11,reduced length
6,B12,exceeding the size of the WT product
7,B13,exceeding the size of the WT product
8,B14,reduced length
9,B15,reduced length

# Same assay, conditions: 8 h synthesis reaction
row,Molecule,"HA product versus WT, long reaction"
1,B16,greater polydispersity
2,B9,equivalent to or exceeding the HA length obtained from the WT enzyme
3,B15,equivalent to or exceeding the HA length obtained from the WT enzyme

# Same assay, conditions: from differences in electrophoretic mobility
row,Molecule,HA size difference versus WT product
1,B9,up to 0.5 MDa
2,B13,up to 0.5 MDa

# Same assay, conditions: short and long reactions (1 h or 8 h), not distinguished
row,Molecule,HA product versus WT
1,B17,polydisperse
2,B18,low molecular weight
3,B8,short HA oligosaccharide species
4,B19,low amounts of polydisperse HA
5,B5,abolishes
6,B6,abolishes
7,B10,short HA oligosaccharide species
8,B20,low amounts of polydisperse HA
9,B21,slight length reduction
